Assay results: PMC8254419

Target: Aβ_(1-42)
Test: thioflavin T fluorescence aggregation kinetics

Aβ_(1-42) (peptide) was tested, and the k+k2 (product of the rate constants of elongation and secondary nucleation) was 1e+11 M^−3s^−2.
